From US20230167177A1 (WUXI BIOLOGICS IRELAND, published 2023)

T1: hICOS.mFC (human, UniProt Q9Y6W8 21-140)
T1 construct: not shown: mFc tag
T1 sequence (looked up): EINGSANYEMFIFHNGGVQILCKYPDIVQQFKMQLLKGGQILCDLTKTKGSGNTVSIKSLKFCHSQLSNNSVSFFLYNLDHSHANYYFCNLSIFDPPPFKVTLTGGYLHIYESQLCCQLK


How the values were obtained:
[1] = target: T1, hICOS.mFC; test: ELISA on coated hICOS.mFc, detected with HRP goat anti-human IgG
Protocol: (§1) After blocking with 2% BSA-PBS, 10 μg/ml and 1.0 μg/ml of testing antibodies were respectively added into the plates and incubated for 1 hour at room temperature. The secondary antibody HRP-labeled goat anti-human IgG (Bethyl A80-304P) was then added and incubated for 1 hour. Washes with PBST were performed between each step. The color reaction was developed by TMB substrate, and then stopped by 2N HCl. The absorbance was read at 450 nm using a Microplate Spectrophotometer (SpectraMax® M5e).

[2] = target: T2, human CTLA-4 ECD protein (in house) (human, UniProt P16410 36-161); test: competition FACS, biotinylated hCTLA4 ECD; competitor hCD86 on transfected cells
T2 construct: extracellular domain; also called immobilized human CTLA-4 ECD protein; hCTLA-4; not shown: 6xHis or Fc tag
T2 sequence (P16410 36-161): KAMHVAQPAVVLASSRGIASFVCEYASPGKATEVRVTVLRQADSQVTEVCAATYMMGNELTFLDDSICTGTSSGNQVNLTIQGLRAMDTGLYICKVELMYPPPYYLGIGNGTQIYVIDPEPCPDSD
Protocol: (§2) After washing, streptavidin PE (BD Pharmingen-554061) was added to the cells and incubated at 4° C. for 1 hour. The fluorescence values were measured by flow cytometry and analyzed by FlowJo.

[3] = target: T3, human CTLA-4 on transfected cells (human, UniProt P16410 36-223); test: FACS on CTLA-4 transfected cells; antibody incubated in human serum at 37 C for 14 days
T3 construct: whole, on cells; also called cell surface human CTLA-4; hCTLA4 transfected cells
T3 sequence (P16410 36-223): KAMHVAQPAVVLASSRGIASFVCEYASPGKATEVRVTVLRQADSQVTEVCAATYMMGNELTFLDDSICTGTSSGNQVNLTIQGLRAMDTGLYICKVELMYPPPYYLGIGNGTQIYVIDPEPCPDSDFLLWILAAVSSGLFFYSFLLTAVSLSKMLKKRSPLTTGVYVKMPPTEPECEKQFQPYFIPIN
Protocol: (§3) Testing antibodies were incubated in freshly isolated human serum (serum content >90%) at 37° C. On indicated time points, an aliquot of serum treated sample was removed from the incubator and snap frozen in liquid nitrogen, and then stored at −80° C. until test. The samples were quickly thawed immediately prior to the stability test. Serial dilutions of antibodies were incubated with CTLA-4 transfected cells for 1 hour at 4° C. After washing, FITC conjugated goat anti-human IgG antibody (Jackson ImmunoResearch) was added to the cells and incubated at 4° C. for 1 hour. Finally, the cells were washed and resuspended in 1% BSA-PBS. The MFI fluorescence values were measured by flow cytometry and analyzed by FlowJo.

[4] = target: T4, hCD28.mFc (human, UniProt P10747 19-152); test: ELISA on coated hCD28 (sheet prints 'hCD28.His', text says hCD28.mFc), detected with HRP goat anti-human IgG
T4 construct: not shown: mFc tag
Protocol: as §1

[5] = target: T2, human CTLA-4 ECD protein (in house); test: competition FACS, biotinylated hCTLA4 ECD; competitor hCD80 on transfected cells
Protocol: as §2

[6] = target: T2, human CTLA-4 ECD protein (in house); test: competition ELISA, hCTLA4 ECD coated; competitor his-tagged hCD80
Protocol: (§4) After washing with PBST, biotin-labeled anti-His mAb (GenScript-A00613) was added and incubation 1 hour. […] The color reaction was developed by TMB substrate, and then stopped by 2N HCl. The absorbance was read at 450 nm using a Microplate Spectrophotometer (SpectraMax® M5e).

[7] = target: T3, human CTLA-4 on transfected cells; test: FACS on CTLA-4 transfected cells; antibody incubated in human serum at 37 C for 0 days
Protocol: as §3

[8] = target: T5, hPD-1.mFc (human, UniProt Q15116 25-170); test: ELISA on coated hPD1 (sheet prints 'hPD1.His', text says hPD-1.mFc), detected with HRP goat anti-human IgG
T5 construct: not shown: mFc tag
T5 sequence (Q15116 25-170): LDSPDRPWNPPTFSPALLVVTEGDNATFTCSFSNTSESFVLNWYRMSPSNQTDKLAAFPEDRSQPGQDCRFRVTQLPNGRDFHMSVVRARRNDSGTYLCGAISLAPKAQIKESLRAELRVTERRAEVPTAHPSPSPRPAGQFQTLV
Protocol: as §1

[9] = target: T2, human CTLA-4 ECD protein (in house); test: competition (epitope binning) ELISA on coated human CTLA4 protein; competitor 0.02 ug/ml W316-BMK1-Biotin, detected with streptavidin-HRP
Protocol: After washing, HRP-conjugated streptavidin were added and incubated for 1 hour. The color was developed by dispensing TMB substrate, and then stopped by 2N HCl. The absorbance was read at 450 nm using a Microplate Spectrophotometer (SpectraMax® M5e).

[10] = target: T2, human CTLA-4 ECD protein (in house); test: ELISA, human CTLA4 ECD coated at 1.0 µg/ml
Protocol: (§5) After blocking with 2% BSA-PBS, serial diluted antibodies were added into each well and incubated for 1 hour at room temperature. HRP-labeled goat anti-human IgG (Bethyl A80-304P) were used as the secondary antibody and incubated for 1 hour. The color was developed by TMB substrate, and then stopped by 2N HCl. The absorbance was read at 450 nm using a Microplate Spectrophotometer (SpectraMax® M5e).

[11] = target: T6, hBTLA.His (human, UniProt Q7Z6A9 31-157, limits assumed); test: ELISA on coated BTLA.His, detected with HRP goat anti-human IgG
T6 construct: not shown: His tag
Protocol: as §1

[12] = target: T2, human CTLA-4 ECD protein (in house); test: competition ELISA, hCTLA4 ECD coated; competitor his-tagged hCD86
Protocol: as §4

[13] = target: T7, cynomolgus CTLA-4 ECD protein (in house) (Macaca fascicularis (cynomolgus monkey), UniProt G7PL88 36-161); test: ELISA, cyno CTLA4 ECD coated at 1.0 µg/ml
T7 construct: also called immobilized cyno CTLA-4 ECD protein; cyno CTLA4 ECD protein; not shown: C-terminal tag: 6xHis or Fc
T7 sequence (G7PL88 entry or part of it limits assumed): as the sequence (P16410 36-161) above, with S14N, I18T, L106M counted along it
Protocol: as §5
(§6) The binding of testing antibodies to […] was assessed by ELISA and FACS as the described above. […] For FACS binding, engineered Cynomolgus CTLA4 expressing cell pool was used.

[14] = target: T3, human CTLA-4 on transfected cells; test: FACS on CTLA-4 transfected cells; antibody incubated in human serum at 37 C for 1 day
Protocol: as §3

[15] = target: T3, human CTLA-4 on transfected cells; test: FACS on CTLA-4 transfected cells; antibody incubated in human serum at 37 C for 7 days
Protocol: as §3

[16] = target: T3, human CTLA-4 on transfected cells; test: FACS on CTLA-4 transfected cells; antibody incubated in human serum at 37 C for 4 days
Protocol: as §3

[17] = target: T3, human CTLA-4 on transfected cells; test: FACS on human CTLA-4 expressing cells
Protocol: (§7) For FACS binding, engineered human CTLA-4 expressing cells were seeded at 1×10⁵ cells/well in U-bottom 96-well plates (COSTAR 3799). After centrifugation at 1500 rpm for 4 minutes at 4° C., the supernatants were moved and the serial dilutions of antibodies in 1% BSA-DPBS were added to the cells. The plates were incubated at 4° C. for 1 hour. […] The binding of the antibodies to the cells was tested by flow cytometry and the mean fluorescence intensity (MFI) was analyzed by FlowJo.

[18] = target: T8, cynomolgus CTLA-4 on transfected cells (Macaca fascicularis (cynomolgus monkey), UniProt G7PL88 36-223); test: FACS on cynomolgus CTLA4 expressing cell pool
T8 construct: also called cell surface cyno CTLA-4; Cynomolgus CTLA4 expressing cell pool
T8 sequence (G7PL88 entry or part of it limits assumed): as the sequence (P16410 36-223) above, with S14N, I18T, L106M counted along it
Protocol: as §7, §6

[19] = target: T3, human CTLA-4 on transfected cells; test: cell-based or functional assay
[20] = target: T3, human CTLA-4 on transfected cells; test: FACS affinity on human CTLA-4 transfected cells (hPro1), quantitative beads
Protocol: (§8) Human CTLA-4 or cyno CTLA-4 transfected cells were plated into 96-well U-bottom plates (BD) at a density of 5×10⁴ cells/well. Testing antibodies were 1:2-fold serially diluted in 1% BSA-PBS and incubated with the cells at 4° C. for 1 hr. After centrifugation at 1500 rpm for 4 min, the supernatant was discarded. The secondary antibody FITC conjugated goat anti-human IgG Fc (Jackson Immunoresearch Lab) was added and incubated at 4° C. in the dark for 30 min. The cells were then washed once and re-suspended in 1% BSA-PBS for the analysis by flow cytometry (BD CantoII). Fluorescence intensity was converted to bound molecules/cell based on the quantitative beads (Quantum™ MESF Kits, Bangs Laboratories). KD was calculated using Graphpad Prism5.

[21] = target: T9, human CTLA-4 ECD, His-tagged (human, UniProt P16410 36-161); test: SPR (Biacore T200), antibody captured by anti-human IgG Fc, CTLA-4 ECD his as analyte
T9 construct: extracellular domain; also called W316.hprol.ECD.his; hCTLA-4.His; not shown: hexa-histidine (6xHis) tag
T9 sequence (P16410 36-161): as the sequence (P16410 36-161) above
Protocol: The experiment was to measure the on-rate constant (ka) and off-rate constant (kd) of the antibodies to CTLA-4 ECD based on SPR technology. The affinity constant (KD) is thus consequently determined. Biacore T200, Series S Sensor Chip CM5, Amine Coupling Kit, and 10XHBS-EP were from GE Healthcare. […] In immobilization step, the activation buffer was prepared by mixing 400 mM EDC and 100 mM NHS immediately prior to injection. The CM5 sensor chip was activated for 420 s with the activation buffer. 30 μg/mL of goat anti-human IgG Fc antibody in 10 mM NaAc (pH 4.5) was then injected to Fc1-Fc4 channels for 200 s at a flow rate of 5 μL/min. The chip was deactivated by 1 M ethanolamine-HCl (GE). Then the antibodies were captured on the chip. Briefly, 4 μg/mL antibodies in running buffer (HBS-EP+) was injected individually to Fc3 channel for 30 s at a flow rate of 10 μL/min. […] Regeneration buffer (10 mM Glycine pH 1.5) was injected at 10 μL/min for 30 s following every dissociation phase.

[22] = target: T8, cynomolgus CTLA-4 on transfected cells; test: FACS affinity on cyno CTLA-4 transfected cells (cPro1), quantitative beads
Protocol: as §8

| Binder | binding result [1] | IC50 [2] [nM] | EC50 [3] [nM] | binding result [4] | IC50 [5] [nM] | IC50 [6] [nM] | EC50 [7] [nM] | binding result [8] | IC50 (read off the curve) [9] [nM] | EC50 [10] [nM] | binding result [11] | IC50 [12] [nM] | EC50 [13] [nM] | EC50 [14] [nM] | EC50 [15] [nM] | EC50 [16] [nM] | EC50 [17] [nM] | EC50 [18] [nM] | other results |
| --- | --- | --- | --- | --- | --- | --- | --- | --- | --- | --- | --- | --- | --- | --- | --- | --- | --- | --- | --- |
| W3166-z13 (Fc fusion, Tested as VHH linked to human IgG1 Fc; also called humanized VHH antibody W3166-z13; W3166-z13 VHH fused with Fc of human IgG1; not shown: human IgG1 Fc region) QVQLVESGGGLVQPGGSLRLSCAASGRTFSSYAMGWFRQAPGMEREFVASIRWSDQTTYVPNSVKGRFTISRDNSKNTLYLQMNSLRPEDTAVYYCATGPTRLSFYSGNYRTYDSWGQGTLVTVSS | no binding (tested: 10 ug/ml) | 0.22 | 0.244 | no binding (tested: 10 ug/ml) | 0.109 | 1.1 | 0.214 | no binding (tested: 10 ug/ml) | ~3 | 0.0983 | no binding (tested: 10 ug/ml) | 2.06 | 0.0732 | 0.221 | 0.223 | 0.237 | 0.325 | 1.5 | – |
| W3166-z17 (Fc fusion, Tested as VHH linked to human IgG1 Fc; also called humanized VHH antibody W3166-z17; W3166-z17 VHH fused with Fc of human IgG1; not shown: human IgG1 Fc region) QVQLVESGGGVVQPGGSLRLSCAASGRTFSSYAMGWFRQAPGKEREFVASIRWSDQTTYVPNSVKGRFTISRDNSKNTLYLQMNSLRPEDTAVYYCATGPTRLSFYSGNYRTYDSWGQGTLVTVSS | no binding (tested: 10 ug/ml) | 0.163 | 0.199 | no binding (tested: 10 ug/ml) | 0.0786 | 0.908 | 0.19 | no binding (tested: 10 ug/ml) | ~3 | 0.0512 | no binding (tested: 10 ug/ml) | 1.67 | 0.0401 | 0.195 | 0.221 | 0.193 | 0.297 | 1.16 | EC50 in inducing ADCC effect [19]: 0.247 nM; Kd [20]: 0.049 nM; Kd [21]: 3.13 nM; koff [21]: 0.0015 s⁻¹; kon [21]: 481000 M⁻¹ s⁻¹; Kd [22]: 0.14 nM |
